Data published in the DeepSol protein solubility set.

assay: soluble on expression in E. coli; label from the status in PepcDB or PDB records

| Sequence | soluble on expression in E. coli |
| --- | --- |
| MKLDQIDLNIIEELKKDSRLSMRELGRKIKLSPPSVTERVRQLESFGIIKQYTLEVDQKKLGLPVSCIVEATVKNADYERFKSYIQTLPNIEFCYRIAGAACYMLKINAESLEAVEDFINKTSPYAQTVTHVIFSEIDTKNGRG | soluble |
| MGSDKIHHHHHHMKRIDLNGFWSVRDNEGRFSFEGTVPGVVQADLVRKGLLPHPYVGMNEDLFKEIEDREWIYEREFEFKEDVKEGERVDLVFEGVDTLSDVYLNGVYLGSTEDMFIEYRFDVTNVLKEKNHLKVYIKSPIRVPKTLEQNYGVLGGPEDPIRGYIRKAQYSYGWDWGARIVTSGIWKPVYLEVYRARLQDSTAYLLELEGKDALVRVNGFVHGEGNLIVEVYVNGEKIGEFPVLEKNGEKLFDGVFHLKDVKLWYPWNVGKPYLYDFVFVLKDLNGEIYREEKKIGLRRVRIVQEPDEEGKTFIFEINGEKVFAKGANWIPSENILTWLKEEDYEKLVKMARSANMNMLRVWGGGIYEREIFYRLCDELGIMVWQDFMYACLEYPDHLPWFRKLANEEARKIVRKLRYHPSIVLWCGNNENNWGFDEWGNMARKVDGINLGNRLYLFDFPEICAEEDPSTPYWPSSPYGGEKANSEKEGDRHVWYVWSGWMNYENYEKDTGRFISEFGFQGAPHPETIEFFSKPEEREIFHPVMLKHNKQVEGQERLIRFIFGNFGKCKDFDSFVYLSQLNQAEAIKFGVEHWRSRKYKTAGALFWQFNDSWPVFSWSAVDYFKRPKALYYYARRFFAEVLPVLKKRDNKIELLVVSDLRETKEVSLRLAAYEKKGEKVFEKTYRTVLPADGVSLVDRVELPDDLFFFVEAEVDGVKYRNYRVFRKWRDLELPDPEISLEDMGELIELTAQRPAFGVKILSDEVPEDDFLFLEPGRSITLKKPDGVRGVKSLFDYLR | not soluble |
| LEAVAPERPRCAYCSAEASKRCSRCQNEWYCCRECQVKHWEKHGKTCVLAAQGDRAK | soluble |
| MPRRAPAFPLSDIKAQMLFANNIKAQQASKRSFKEGAIETYEGLLSVDPRFLSFKNELSRYLTDHFPANVDEYGRVYGNGVRTNFFGMRHMNGFPMIPATWPLASNLKKRADADLADGPVSERDNLLFRAAVRLMFSDLEPVPLKIRKGSSTCIPYFSNDMGTKIEIAERALEKAEEAGNLMLQGKFDDAYQLHQMGGAYYVVYRAQSTDAITLDPKTGKFVSKDRMVADFEYAVTGGEQGSLFAASKDASRLKEQYGIDVPDGFFCERRRTAMGGPFALNAPIMAVAQPVRNKIYSKYAYTFHHTTRLNKEEKVKEWSLCVATDVSDHDTFWPGWLRDLICDELLNMGYAPWWVKLFETSLKLPVYVGAPAPEQGHTLLGDPSNPDLEVGLSSGQGATDLMGTLLMSITYLVMQLDHTAPHLNSRIKDMPSACRFLDSYWQGHEEIRQISKSDDAMLGWTKGRALVGGHRLFEMLKEGKVNPSPYMKISYQHGGAFLGDILLYDSRREPGSAIFVGNINSMLNNQFSPEYGVQSGVRDRSKRKRPFPGLAWASMKDTYGACPIYSDVLEAIERCWWNAFGESYRAYREDMLKRDTLELSRYVASMARQAGLAELTPIDLEVLADPNKLQYKWTEADVSANIHEVLMHGVSVEKTERFLRSVMPR | soluble |
| MFQDMSKDFDIKRIKRSNTSCSTGVGAHVHPFNEIFYLSSGECTSFIDHNIYKFGKGDLVIVPSGCLHRTTYNGKGMHERIVISFRNEATEWIQNQTGKELMENCMKPGVVNIPEKRRDYVVALLDKLIFENDSPDELSPAFIKVGLIELLLFIIRCKNYEENVIKEIDVDNR | not soluble |
| MGSDKIHHHHHHTQRWLSGNISNFQYLMHLNTLAGRCYNDLSQYPIFPWVLADYTSSQLDFNNISTFRDFSKPMGAQSPDRLEQFLKRFREWDDPSGETPPYMYGTHYSSAMIVVSYLVRLEPFTQQFLSLQGGHFDLADRMFHSVGDAWTSASRNNMADVKELIPEFFTLPEMFTNTNHFDLGVKQNGIHVNDVLLPAWCHGDPREFIRLHRQALESDYVSSHLHEWIDLIFGYKQNGEEAVKNSNLFHHLFYEGSVDFERIDDPLTRNATIGFVNNFGQIPTQLFKKPHPQK | not soluble |
| MCNLTIHNIENYENDPQLRLIPWILWENLFQHFISANELSLMTLSYKEAIHIFLPGTKNMEQVRQLLCLYYAHYNRNAKQLWSDAHKKGIKSEVICFVAAITGCSSALDTLCLLLTSDEIVKVIQAENYQAFRLAAENGHLHVLNRLCELAPTEIMAMIQAENYHAFRLAAENGHLHVLNRLCELAPTEATAMIQAENYYAFRWAAVGRGHHNVINFLLDCPVMLAYAEIHEFEYGEKYVNPFIARHVNRLKEMHDAFKLSNPDGVFDLVTKSECLQGFYMLRNLIRRNDEVLLDDIRFLLSIPGIKALAPTATIPGDANELLRLALRLGNQGACALLLSIPSVLALTKANNYYINETGGRLDLRAVALEHHHHHH | soluble |
| MSYFSHQDPNNPESHINFTMAQMEIQRWTLLISNPEADASTLVMELKTVTGESKHFINQAINAMWALMKLPILRVVVETHFHVRIPYLARIMQAVKQAKPELWDELDHRIAEKLTPRIAGQALMEASALAGLITRWIKELDPTFTGKKRGPKGSDGTLTFRHVDGRTYISGNIDGVTGKLFQKALEKVKQKGEDLARALVTFLAGRTKVKIVSAVYTPLVGGVSWIPGVGFLSQEESRKLGKTASKVIDLDTIATRVENGYTPSPELRLYVMGRDGTCRHPGCTVSADNCQIDHVIPFGEGGLTVAWNLQCLCAHHHNMKTDGRIQAAIDSMGRVAWIGPCNRTVVTEPVGPLAQEMPTGQWGQTLEARMEKTFEKLRSSLEVLDDLEHHHHHH | soluble |
| KKPIPTLFLHGFGGSANSEKFMVKQAEKRGVTKDIITAYVSKDGAVTFKGKLRKDAVNPIVKIELENNRQGYLDKNAAWFKNVLTKLQSEYNFDKFNFVGHSMGNLTFAQYMMTYGNDKSLPQLNKQVNIAGTFNGVLNMNEDVNEITVDKDGKPSRMNQPYQQLRVLKDIYKGKGIEVLNIYGDLKDGTHSDGRVSNSSSKSLKYLLGNSPKSYRESKYEGEPAQHSQLHENENVANELIDFLWKK | not soluble |
| GWNECNDKLRDISRSFWRGDQGYLKEFATRLMGSRDIYSAANWPYKLTVNYITYHDGFTLQDLVSYKHKHNEANGEENRDGHGDNRSENYGVEGETENIMIIATREKQKRNLIASLLFAFGIPHILTADVLSHSQDGNNNAYCQDNKTSWINWSETERKAHFKTWMAQMVANRHQYMVPFIRAFSGENRNNNRIFWRRTDGRLMEHDDWNRLSSVALHLGIGKDGQELVYLINQTNATARFKLPNERNQEWVTICDTNVRNLNPGHAEGEVLLSPTSMVILHYQPKPNSPQGEQLQS | not soluble |
| MATDSWALAVDEQEAAAESLSNLHLKEEKIKPDTNGAVVKTNANAEKTDEEEKEDRAAQSLLNKLIRSNLVDNTNQVEVLQRDPNSPLYSVKSFEELRLKPQLLQGVYAMGFNRPSKIQENALPLMLAEPPQNLIAQSQSGTGKTAAFVLAMLSQVEPANKYPQCLCLSPTYELALQTGKVIEQMGKFYPELKLAYAVRGNKLERGQKISEQIVIGTPGTVLDWCSKLKFIDPKKIKVFVLDEADVMIATQGHQDQSIRIQRMLPRNCQMLLFSATFEDSVWKFAQKVVPDPNVIKLKREEETLDTIKQYYVLCSSRDEKFQALCNLYGAITIAQAMIFCHTRKTASWLAAELSKEGHQVALLSGEMMVEQRAAVIERFREGKEKVLVTTNVCARGIDVEQVSVVINFDLPVDKDGNPDNETYLHRIGRTGRFGKRGLAVNMVDSKHSMNILNRIQEHFNKKIERLDTDDLDEIEKIAN | soluble |
| ASQFFFNQRTHLVSDVIDGAIIASPWNNLARLESDPAIRIVVRRDLNKNNVAVISGGGSGHEPAHVGFIGKGMLTAAVCGDVFASPSVDAVLTAIQAVTGEAGCLLIVKNYTGDRLNFGLAAEKARRLGYNVEMLIVGDDISLPDNKHPRGIAGTILVHKIAGYFAERGYNLATVLREAQYAASNTFSLGVALSSCHLPQETDAAPRHHPGHAELGMGIHGEPGASVIDTQNSAQVVNLMVDKLLAALPETGRLAVMINNLGGVSVAEMAIITRELASSPLHSRIDWLIGPASLVTALDMKGFSLTAIVLEESIEKALLTEVETSNWPTPVPPREITCVVSSHASARVEFQPSANALVAGIVELVTATLSDLETHLNALDAKVGDGDTGSTFAAAAREIASLLHRQQLPLNNLATLFALIGERLTVVMGGSSGVLMSIFFTAAGQKLEQGANVVEALNTGLAQMKFYGGADEGDRTMIDALQPALTSLLAQPKNLQAAFDAAQAGAERTCLSSKANAGRASYLSSESLLGNMDPGAQALAMVFKALAESELG | soluble |
